The chains are these.
B1: Coatomer subunit alpha (Saccharomyces cerevisiae), P53622 (parent)
chain: MKMLTKFESKSTRAKGIAFHPSRPWVLVALFSSTIQLWDYRMGTLLHRFEDHEGPVRGLDFHPTQPIFVSAGDDYTIKVWSLDTNKCLYTLTGHLDYVRTVFFHRELPWIISASDDQTIRIWNWQNRKEIACLTGHNHFVMCAQFHPTDDLIVSASLDETIRIWDISGLRKRHSAPGTSSFEEQMSAQQNLLDGSLGDCVVKFILEGHTRGVNWASFHPTLPLIVSGSDDRQVKLWRMSATKAWEVDTCRGHTNNVDSVIFHPHQNLIISVGEDKTLRVWDLDKRTPVKQFKRENDRFWLIAAHPHINLFGAAHDSGIMVFKLDRERPCSFIHQNQLFFVNAEKQIQSFNFQKRVASLPYASLKGIGQPWDAFRSISYNPSQHSVLVNEANGKFALVILPKQPVGAVEPTSVTQDTGNFATFVGRNRFVVYNKNTESVEVRSLENKVTRNIKVEETVRTIVAAGPGSVLVIHPREVILYDVQQGKKVSQLAVKNVKYVSWSLDGQYVALMSKHTITLATKKLELINSMHETIRIKSAAWDETGVLIYSTLNHIRYSLLNGDRGIIKTLEKTLYITKVQGKLVYCLNREGEIEILTIDPTEYRFKKALVNKNFPEVLRLIKDSNLVGQNIISYLQKSGYPEIALQFVQDPHIRFDLALEYGNLDVALDEAKKLNDSSTWERLIQEALAQGNASLAEMIYQTQHSFDKLSFLYLVTGDVNKLSKMQNIAQTREDFGSMLLNTFYNNSTKERSSIFAEGGSLPLAYAVAKANGDEAAASAFLEQAEVDEQDVTLPDQMDASNFVQRPVISKPLEKWPLKEAELSYFEKAVLGQIDDLTIDDETPAVNTTQEQEEPLGEENFNDEDIGEDEGAWDLGDEDLDVGEELPEEVEQGEITSPAQEVETAIWIKNSKLPAVLVAAGAFDAAVQALSKQVGVVKLEPLKKYFTNIYEGCRTYIPSTPCELPAQLGYVRAYDDTVSEDQILPYVPGLDVVNEKMNEGYKNFKLNKPDIAIECFREAIYRITLLMVDDAEDEKLAHKILETAREYILGLSIELERRSLKEGNTVRMLELAAYFTKAKLSPIHRTNALQVAMSQHFKHKNFLQASYFAGEFLKIISSGPRAEQARKIKNKADSMASDAIPIDFDPYAKFDICAATYKPIYEDTPSVSDPLTGSKYVITEKDKIDRIAMISKIGAPASGLRIRV
partner: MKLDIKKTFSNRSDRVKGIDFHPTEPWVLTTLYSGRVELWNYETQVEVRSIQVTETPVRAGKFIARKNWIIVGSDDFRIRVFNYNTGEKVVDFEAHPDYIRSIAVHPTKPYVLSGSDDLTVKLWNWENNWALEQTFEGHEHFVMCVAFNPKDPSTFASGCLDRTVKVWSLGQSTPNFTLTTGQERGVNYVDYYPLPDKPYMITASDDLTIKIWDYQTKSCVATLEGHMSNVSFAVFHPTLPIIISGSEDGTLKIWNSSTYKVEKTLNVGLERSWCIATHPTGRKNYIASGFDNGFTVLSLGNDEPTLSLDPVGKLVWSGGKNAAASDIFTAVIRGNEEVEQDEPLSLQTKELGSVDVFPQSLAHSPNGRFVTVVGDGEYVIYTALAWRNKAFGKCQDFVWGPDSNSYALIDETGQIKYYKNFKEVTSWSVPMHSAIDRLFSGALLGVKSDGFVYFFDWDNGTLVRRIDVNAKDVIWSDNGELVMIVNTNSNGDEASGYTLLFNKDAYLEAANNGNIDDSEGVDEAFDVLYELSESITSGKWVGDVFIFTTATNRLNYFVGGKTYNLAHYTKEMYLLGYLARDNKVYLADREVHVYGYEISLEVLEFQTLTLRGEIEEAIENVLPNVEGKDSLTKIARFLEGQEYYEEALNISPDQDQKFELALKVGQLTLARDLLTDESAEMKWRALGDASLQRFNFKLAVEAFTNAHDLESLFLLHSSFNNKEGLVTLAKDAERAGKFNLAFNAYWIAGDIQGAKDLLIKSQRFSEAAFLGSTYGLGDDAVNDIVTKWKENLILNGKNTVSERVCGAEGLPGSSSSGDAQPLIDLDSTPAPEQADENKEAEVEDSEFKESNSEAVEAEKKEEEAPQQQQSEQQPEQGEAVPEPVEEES

The assay covers variants of B1. The conditions noted are these: with copb2_yeast SEC27, P41811.
Regarding S1188F, the “effect of a mutation on the interaction” value is “decreasing interaction”.

The values above are taken from IntAct's records for PubMed 10921873.
